Source: article doi:10.1101/2020.07.07.191163 (bioRxiv, 2020)

Molecular target: the molecule itself
Assay: native MS

B1: Bacillus subtilis pyruvate kinase PykA (enzyme, B. subtilis, UniProt P80885 1-585, looked up)
chain: MRKTKIVCTIGPASESIEMLTKLMESGMNVARLNFSHGDFEEHGARIKNIREASKKLGKNVGILLDTKGPEIRTHTMENGGIELETGKELIISMDEVVGTTDKISVTYEGLVHDVEQGSTILLDDGLIGLEVLDVDAAKREIKTKVLNNGTLKNKKGVNVPGVSVNLPGITEKDARDIVFGIEQGVDFIAPSFIRRSTDVLEIRELLEEHNAQDIQIIPKIENQEGVDNIDAILEVSDGLMVARGDLGVEIPAEEVPLVQKELIKKCNALGKPVITATQMLDSMQRNPRPTRAEASDVANAIFDGTDAIMLSGETAAGSYPVEAVQTMHNIASRSEEALNYKEILSKRRDQVGMTITDAIGQSVAHTAINLNAAAIVTPTESGHTARMIAKYRPQAPIVAVTVNDSISRKLALVSGVFAESGQNASSTDEMLEDAVQKSLNSGIVKHGDLIVITAGTVGESGTTNLMKVHTVGDIIAKGQGIGRKSAYGPVVVAQNAKEAEQKMTDGAVLVTKSTDRDMIASLEKASALITEEGGLTSHAAVVGLSLGIPVIVGLENATSILTDGQDITVDASRGAVYQGRASVL
stoichiometry N: 4
